Source: patent US20230144608

T1: APAGLIVPYN (SEQ ID NO: 5)
T1 chain: APAGLIVPYN

T2: TQKPLGLS (SEQ ID NO: 4)
T2 chain: TQKPLGLS

T3: PANLVAPDP (SEQ ID NO: 6)
T3 chain: PANLVAPDP

T4: PVSLRSGS (SEQ ID NO: 1)
T4 chain: PVSLRSGS

T5: RPLALWRS (SEQ ID NO: 3)
T5 chain: RPLALWRS

T6: IVGRPRHQGV (SEQ ID NO: 7)
T6 chain: IVGRPRHQGV

T7: RSKYLATA (SEQ ID NO: 8)
T7 chain: RSKYLATA

B1: MMP-2 (protein)
chain: YNFFPRKPKWDKNQITYRIIGYTPDLDPETVDDAFARAFQVWSDVTPLRFSRIHDGEADIMINFGRWEHGDGYPFDGKDGLLAHAFAPGTGVGGDSHFDDDELWTLGEGQVVRVKYGNADGEYCKFPFLFNGKEYNSCTDTGRSDGFLWCSTTYNFEKDGKYGFCPHEALFTMGGNAEGQPCKFPFRFQGTSYDSCTTEGRTDGYRWCGTTEDYDRDKKYGFCPETAMSTVGGNSEGAPCVFPFTFLGNKYESCTSAGRSDGKMWCATTANYDDDRKWGFCPDQGYSLFLVAAHEFGHAMGLEHSQDPGALMAPIYTYTKNFRLSQDDIKGIQELYGASPDIDLGTGPTPTLGPVTPEICKQDIVFDGIAQIRGEIFFFKDRFIWRTVTPRDKPMGPLLVATFWPELPEKIDAVYEAPQEEKAVFFAGNEYWIYSASTLERGYPKPLTSLGLPPDVQRVDAAFNWSKNKKTYIFAGDKFWRYNEVKKKMDPGFPKLIADAWNAIPDNLDAVVDLQGGGHSYFFKGAYYLKLENQSLKSVKFGSIKSDWLGC
B2: MMP-1 (protein)
chain: FVLTEGNPRWEQTHLTYRIENYTPDLPRADVDHAIEKAFQLWSNVTPLTFTKVSEGQADIMISFVRGDHRDNSPFDGPGGNLAHAFQPGPGIGGDAHFDEDERWTNNFREYNLHRVAAHELGHSLGLSHSTDIGALMYPSYTFSGDVQLAQDDIDGIQAIYGRSQNPVQPIGPQTPKACDSKLTFDAITTIRGEVMFFKDRFYMRTNPFYPEVELNFISVFWPQLPNGLEAAYEFADRDEVRFFKGNKYWAVQGQNVLHGYPKDIYSSFGFPRTVKHIDAALSEENTGKTYFFVANKYWRYDEYKRSMDPGYPKMIAHDFPGIGHKVDAVFMKDGFFYFFHGTRQYKFDPKTKRILTLQKANSWFNCRKN
B3: MMP-7 (protein)
chain: YSLFPNSPKWTSKVVTYRIVSYTRDLPHITVDRLVSKALNMWGKEIPLHFRKVVWGTADIMIGFARGAHGDSYPFDGPGNTLAHAFAPGTGLGGDAHFDEDERWTDGSSLGINFLYAATHELGHSLGMGHSSDPNAVMYPTYGNGDPQNFKLSQDDIKGIQKLYGKRSNSRKK

Biological target: T1, APAGLIVPYN (SEQ ID NO: 5)

| Protein | initial rate of cleavage by recombinant protease [µM/h] |
| --- | --- |
| B1 | 29.6 |
| B2 | 0 |
| B3 | 2.4 |

Biological target: T2, TQKPLGLS (SEQ ID NO: 4)

| Protein | initial rate of cleavage by recombinant protease [µM/h] |
| --- | --- |
| B1 | 11.8 |
| B2 | 0 |
| B3 | 1.8 |

Biological target: T3, PANLVAPDP (SEQ ID NO: 6)

| Protein | initial rate of cleavage by recombinant protease [µM/h] |
| --- | --- |
| B1 | 31.2 |
| B2 | 2.7 |
| B3 | 2.5 |

Biological target: T4, PVSLRSGS (SEQ ID NO: 1)

| Protein | initial rate of cleavage by recombinant protease [µM/h] |
| --- | --- |
| B1 | 1.9 |
| B2 | 0 |
| B3 | 0.2 |

Biological target: T5, RPLALWRS (SEQ ID NO: 3)

| Protein | initial rate of cleavage by recombinant protease [µM/h] |
| --- | --- |
| B1 | 1.1 |
| B2 | 0.1 |
| B3 | 0.2 |

Biological target: T6, IVGRPRHQGV (SEQ ID NO: 7)

| Protein | initial rate of cleavage by recombinant protease [µM/h] |
| --- | --- |
| B1 | 0 |
| B2 | 0 |
| B3 | 0 |

Biological target: T7, RSKYLATA (SEQ ID NO: 8)

| Protein | initial rate of cleavage by recombinant protease [µM/h] |
| --- | --- |
| B1 | 0 |
| B2 | 0 |
| B3 | 0 |
